According to US20110212091:

What was measured:
[1] = test system: FGFR4 R388, V5-His tagged (FGFR4R388-V5-His)
[2] = test system: FGFR4 G388, V5-His tagged (FGFR4G388-V5-His)

Q: With HA-tagged MT1-MMP as the substance, how does the MT1-MMP tyrosine phosphorylation [1] read?
A: repeatedly detected

Q: What about the MT1-MMP tyrosine phosphorylation [2] of the same substance?
A: repeatedly detected
